The values that follow come from patent CN113956356A (FUZHOU MAIXIN BIOTECHNOLOGY DEV CO LTD, dated 2022).

The experiment addresses T1, 人PRL蛋白 (native prolactin in pituitary tumour tissue sections) (human, UniProt P01236 29-227).
T1 construct: Endogenous protein detected by immunohistochemistry in paraffin sections of pituitary tumours; also called 催乳素
T1 sequence (looked up): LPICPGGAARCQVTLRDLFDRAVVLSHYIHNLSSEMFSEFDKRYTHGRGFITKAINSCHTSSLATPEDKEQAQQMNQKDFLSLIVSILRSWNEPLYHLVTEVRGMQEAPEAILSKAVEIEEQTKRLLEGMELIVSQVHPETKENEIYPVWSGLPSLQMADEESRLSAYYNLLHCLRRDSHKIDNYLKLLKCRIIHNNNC
Briefly: immunohistochemistry on 9 pituitary tumour sections.

B1: 抗PRL蛋白单克隆抗体(2C10D5H11) (antibody, V domains shown)
VH: QIQLVQSGPELKKPGETVKISCKASGYSFTNSAMSWVHQAPGKGLKWMGFINTKTGEPTYVEEFRGRFVFSLETSASTAYLQINNLKNEDTATYFCAKETDNSDDYWGQGTTLTVSS
VL: QIVLTQSPAIMSASPGEMVTLTCSASSSVSSSYLYWYQQKPGSSPKLWIYSTSNLASGVPARFSGSGSGTSYSLTISSMEAEDAASYFCHQWSSYPPTFGGGTKLEIK
notes: also called anti-PRL monoclonal antibody; antibody of hybridoma CGMCC NO.22311
For B1, the binding result is “binds”.
